Data: PMC9950733, “Screening and epitope characterization of diagnostic nanobody against total and activated Bacteroides fragilis toxin” (Frontiers in Immunology, 2023)

T1: recombinant Bacteroides fragilis toxin 1 (BFT1), full length without signal peptide (Bacteroides fragilis (enterotoxigenic), …)
T1 construct: B. fragilis toxin subtype 1 (BFT1, fragilysin), zinc-dependent metallopeptidase of enterotoxigenic Bacteroides fragilis; prodomain plus catalytic domain, without the signal peptide; also called B. fragilis toxin; source: E. coli Origami-2 (DE3), purified (Ni-NTA, SEC on Superdex 75)
T1 chain: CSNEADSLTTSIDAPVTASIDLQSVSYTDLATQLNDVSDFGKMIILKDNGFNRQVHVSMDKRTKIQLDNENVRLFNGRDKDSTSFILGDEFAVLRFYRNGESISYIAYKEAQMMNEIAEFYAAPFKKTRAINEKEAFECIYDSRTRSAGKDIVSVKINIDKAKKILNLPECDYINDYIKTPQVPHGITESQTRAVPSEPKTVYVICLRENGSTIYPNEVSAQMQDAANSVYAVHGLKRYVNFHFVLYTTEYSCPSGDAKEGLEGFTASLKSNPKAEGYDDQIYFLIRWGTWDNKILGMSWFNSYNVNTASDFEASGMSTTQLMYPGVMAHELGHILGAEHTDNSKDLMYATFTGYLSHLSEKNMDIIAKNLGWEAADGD


Legend:
[1] = target: T1, recombinant Bacteroides fragilis toxin …; test: ITC; Microcal ITC 200, 25°C; 20 mM Tris pH 8.0, 150 mM NaCl, 5% glycerol; nanobody (20 μM) injected into BFT solution (200 μM); one binding site mode; conditions: both partners purified
[2] = target: T1, recombinant Bacteroides fragilis toxin …; test: as above; conditions: both partners purified
[3] = target: T1, recombinant Bacteroides fragilis toxin …

Row | Binder | stoichiometry N [1] | Kd [2] [nM] | dH [2] [kcal/mol] | binding result [3]
1 | Nb3.27 (VHH, from round 3 of bio-panning; CDR1 Gly26-Ala33, CDR2 Ile51-Thr58, CDR3 Ala97-Asn110; source: E. coli WK6 periplasm, purified (Ni-NTA, SEC on Superdex 75)) VHH: QVQLQESGGGLVQAGGSLRLSCTYSGQTFSAWAMGWFRQAPGKERETVATINWNGERTQYADAVKGRFTISRDNAKDTVYLEMNSLKPEDTAVYYCASMMGTYYSGSPKNWGQGTQVTVSS | 1 | 0.828 | -9.47 | –
2 | Nb2.55 (VHH, from round 2 of bio-panning; source: E. coli WK6 periplasm, purified (Ni-NTA, SEC on Superdex 75)) VHH: QVQLQESGGGLVQAGGSLRLSCVRSGHTFDAFAMGWFRQAPGKERESVATINWSGDRTYYADSAKGRFTISRDNAKNTVYLQMNSLKPEDTAVYYCAQMDGTYYSGTPSYWGQGTQVTVSS | 1 | 10.6 | -10 | –
3 | Nb3.43 (VHH, from round 3 of bio-panning; source: E. coli WK6 periplasm, purified (Ni-NTA, SEC on Superdex 75)) VHH: QVQLQESGGGLVQAGGSLRLSCARSGRTFSSFAMGWFRQAPGKEREFVATINWSGDKTSYADSVKGRFTISRDNAKNTVYLQMNSLKPEDTAVYYCAQMDGTYYSGSPGYWGQGTQVTVSS | 1 | 2.01 | -9.06 | –
4 | Nb2.41 (VHH, from round 2 of bio-panning; source: E. coli WK6 periplasm, purified (Ni-NTA, SEC on Superdex 75)) VHH: QVQLQESGGGLVQAGGSLRLSCASSGRTFDAWAMGWFRQAPGKEREVVATISWNGDRTYYGDSVKGRFTISRDNAKSTVALQMNNLKPEDTGVYYCAQMEGTYYSGRPSYWGQGTQVTVSS | 1 | 1.37 | -20 | –
5 | Nb2.29 (VHH, from round 2 of bio-panning; source: E. coli WK6 periplasm, purified (Ni-NTA, SEC on Superdex 75)) VHH: QVQLQESGGGLVQAGGSLRLSCVASGIIDNINTFGWYRQAPGKQRELVANISRWGNTNYADSSRDGFFISSEDANTTMYLLMMNLKPDDDAVYYCRAEIIGYDNGAHDYWGRGTRITVSS | 1 | 1.18 | -15.5 | –
6 | Nb2.37 (VHH, from round 2 of bio-panning; source: E. coli WK6 periplasm, purified (Ni-NTA, SEC on Superdex 75)) VHH: QVQLQESGGGLVQPGGSLRLSCVVSRRTFDAWAMGWFRQAPGQERDFVASVNWSGDSTYYADSVKGRFTISRDNAKNTVYLQMNSLKPEDTAVYYCAALAGSYHSRTPLDDYWGQGTQVTVSS | 1 | 3.91 | -14.1 | –
7 | Nb2.50 (VHH) VHH: QVQLQESGGGLVQAGGSLRLSCVSSGRTFDAWAMGWLRQAPGKERESVATISWSGDRTQYADSVKGRFTISRDNAKNTLFLQMNNLRPEDTAIYYCALMEGTHYSGRPGTWGRGTQVTVSS | – | – | – | binds
8 | Nb2.82 (VHH, from round 2 of bio-panning; CDR1 Gly26-Thr33, CDR2 Ile51-Thr58, CDR3 Ala97-Asp111; source: E. coli WK6 periplasm, purified (Ni-NTA, SEC on Superdex 75)) VHH: QVQLQESGGGLVQPGGSLRLSCAASGFTFSRYTMTWVRQAPGKGLEWVSNINSDGGRTYYADSVKGRFTISRDNTKNTLYLQMNSLKPEDTAVYYCAIPKRTYVPPSQFDDRGQGTQVTVSS | 1 | 11.5 | -17.9 | –
9 | Nb2.13 (VHH) VHH: QVQLQESGGGLVQPGGSLTLSCVGSGFSLEYYAVGWFRQAPGKEREAVACISSWDGLTYLSDSVKGRFTVSRDNVKNTAYLQMNSLKPEDSAVYYCARDRARCRYYSTPNEYDEWGHGTQVTVSS | – | – | – | binds
10 | Nb2.14 (VHH, from round 2 of bio-panning; source: E. coli WK6 periplasm, purified (Ni-NTA, SEC on Superdex 75)) VHH: QVQLQESGGGFVQTGGSLRLSCERSGTTFDSFAMGWFRQSPGKEREKVATINWSGESTSYTDSVKGRFTISRDNAKNTVYLQMNNLQPEDTAIYYCAQIAGTHYSGTPQYWGQGTQVTVSS | 1 | 0.36 | -14.3 | –
11 | Nb3.40 (VHH, from round 3 of bio-panning; source: E. coli WK6 periplasm, purified (Ni-NTA, SEC on Superdex 75)) VHH: QVQLQESGGGFVQTGGSLRLSCERSGTTFDSFAMGWFRQSPGKEREKVATINWSGESTSYTDSVKGRFTISRDNAKNTVYLQMNNLQPEDTAIYYCAQIAGTYYSGTPQYWGQGTQVTVSS | 1 | 2.58 | -13.6 | –
12 | Nb3.4 (VHH, from round 3 of bio-panning; source: E. coli WK6 periplasm, purified (Ni-NTA, SEC on Superdex 75)) VHH: QVQLQESGGGLVQPGGSLRLSCAASGFTFSSAAMNWVRQAPGKGPEWVSGINSSGTTTKYADSVKGRFTISRDNAKNTLYLQMNSLKPEDTAIYYCARKPLWSVGYDYWGQGTQVTVSS | 1 | 3.94 | -8.4 | –
13 | Nb3.17 (VHH, from round 3 of bio-panning; source: E. coli WK6 periplasm, purified (Ni-NTA, SEC on Superdex 75)) VHH: QVQLQESGGGLVQAGDSLRLSCAASGGSFDMFAMGWFRQAPGKERERVATISWSGDRTVYADSVKGRFTISRDNTKKMLYLQMNNLKPEDTAVYYCAQIEGTHYSGSPSDHWGQGTQVTVSS | 1 | 0.66 | -20.3 | –
14 | Nb3.74 (VHH) VHH: QVQLQESGGGFVQTGGSLRLSCERSGTTFDSFAMGWFRQAPGKERESVGTINWSGDRTYYADSVKGRFTISRDNAKNTVYLQMKKLKPEDTAVYYCAQIRGTYLDGSPGSWGQGTQVTVSS | – | – | – | binds
15 | Nb3.93 (VHH, from round 3 of bio-panning; source: E. coli WK6 periplasm, purified (Ni-NTA, SEC on Superdex 75)) VHH: QVQLQESGGGLVQPGGSLRLSCAASGSTLARYHIGWFRQAPGKEREGVACISSSGDSTNYADSVKGRFTISRDNANNTVYLQMNSLKPEDTAVYYCVADPLKCILRRGGENRYLEHWGQGTQVTVSS | 1 | 5.96 | -22.1 | –
16 | Nb2.1 (VHH) VHH: QVQLQESGGGLVQPEGSLRLSCVASGEFTLDYYAIGWFRQAPGKEREELSCISRTGANTNYADSVKGRFTVSRDNAKNTVYLQMNSLKPEDTANYYCAATLGVNNDCSGYVSPDVYDYWGHGTQVTVSS | – | – | – | binds
17 | Nb2.74 (VHH) VHH: QVQLQESGGGLVQPGGSLRLSCGASGFTFNGYAMSWVRQAPGKGPEWVSGINTIGNTTYYADSVKGRFTISRDNAQNTLYLQMNSLKPEDTALYYCARKPFGSTWTEYDYRGQGTQVTVSS | – | – | – | binds
18 | Nb3.88 (VHH) VHH: QVQLQESGGGLVQPGGSLRLSCAASGLTFNGYAMSWVRQAPGKGPEWVSGINTIGTTTYYADSVKGRFTISRDNAKNTLYLQMNSLKPEDTALYYCARKPFGSTWSEYDYRGQGTQVTVSS | – | – | – | binds
19 | Nb2.59 (VHH) VHH: QVQLQESGGGLVQAGGSLRLSCAFSGRTDDAQYAMGWFRQAPGKERESVGTINWSGDRTNYADSVKGRFTISRDNVKNMMYLQMNSLKPEDTAVYYCARIYGTYLSGSPGSWGQGTQVTVSS | – | – | – | binds
20 | Nb3.63 (VHH, from round 3 of bio-panning; source: E. coli WK6 periplasm, purified (Ni-NTA, SEC on Superdex 75)) VHH: QVQLQESGGGLVQVGGSLRLSCAASGRTFGTFPMGWFRQAPGKEREFVAAISWSGTGTYYANSVKGRFTISRDNARNTVYLQMNNLKPEDTAVYSCAGRNTGRYSTTVYVEESDYGYWGQGTQVTVSS | 1 | 3.37 | -18.8 | –
21 | Nb3.61 (VHH) VHH: QVQLQESGGGLVQPGGSLRLSCAASGFSFSSYAMTWVRQAPGKGPERVSIINPSGRTTNYADSVKGRFTISRDNAKNTLYLQMNSLKPEDTALYYCARKPPMAEEYDYRGQGTQVTVSS | – | – | – | binds
22 | Nb2.40 (VHH, from round 2 of bio-panning; source: E. coli WK6 periplasm, purified (Ni-NTA, SEC on Superdex 75)) VHH: QVQLQESGGGLVQAGGSLRLSCAYFGRTFSAWAMGWFRQAPGKERESVATINWSGERTSYADSVKGRFTISRDNAKNTVYLQMNSLKPEDTAVYYCAAMEGTYYSGKPGTWGQGTQVTVSS | 1 | 8.72 | -13.5 | –
